± gives the uncertainty stated by the source.
B1: SH3 and PX domain-containing protein 2B, residues 155 to 209; numbered along this chain, A1X283 (parent)
chain: EQYVVVANYQKQESSEISLSVGQVVDIIEKNESGWWFVSTAEEQGWVPATCLEGQ

Variants of: B1
Assay: abundance fitness (aPCA) (normalised: wild type 0, dead -1); higher = more abundant; growth selection in yeast, the domain comes from the species named
Conditions: Homo sapiens

Compared with EQYVVVANYQKQESSEISLSVGQVVDIIEKNESGWVFVSTAEEQGWVPATCLEGQ, EQYVVVANYQKQESSEISLSVGQVVDIIEKNESGWLFVSTAEEQGWVPATCLEGQ is lower in abundance fitness: 0.009 ± 0.072 for the first, -0.2 ± 0.078 for the second.

Going from EQYVVVANYQKQESSEISLSVGQVVDIIEKNESGWDFVSTAEEQGWVPATCLEGQ to EQYVVVANYQKQESSEISLSVGQVVDIIEKNESGWFFVSTAEEQGWVPATCLEGQ, the abundance fitness rises from -0.403 ± 0.096 to 0.083 ± 0.1.

EQYVVVANYQKQESSEISLSVGQVVDIIEKNMSGWWFVSTAEEQGWVPATCLEGQ and EQYVVVANYQKQESSEISLSVGQVVDIIEKNSSGWWFVSTAEEQGWVPATCLEGQ are within error of each other in abundance fitness: -0.188 ± 0.11 for the first, -0.07 ± 0.071 for the second.

EQYVVVANYQKQESSEISLSVGQVVDIIEKNGSGWWFVSTAEEQGWVPATCLEGQ and EQYVVVANYQKQESSEISLSVGQVVDIIEKNHSGWWFVSTAEEQGWVPATCLEGQ are within error of each other in abundance fitness: 0.001 ± 0.061 for the first, -0.139 ± 0.13 for the second.

EQYVVVANYQKQESSEISLSVGQVVDIIEKNCSGWWFVSTAEEQGWVPATCLEGQ and EQYVVVANYQKQESSEISLSVGQVVDIIEKNDSGWWFVSTAEEQGWVPATCLEGQ are within error of each other in abundance fitness: -0.152 ± 0.11 for the first, -0.047 ± 0.09 for the second.

EQYVVVANYQKQESSEISLSVGQVVDIIEKNNSGWWFVSTAEEQGWVPATCLEGQ and EQYVVVANYQKQESSEISLSVGQVVDIIEKNPSGWWFVSTAEEQGWVPATCLEGQ are within error of each other in abundance fitness: -0.078 ± 0.15 for the first, -0.084 ± 0.083 for the second.

EQYVVVANYQKQESSEISLSVGQVVDIIEKNQSGWWFVSTAEEQGWVPATCLEGQ and EQYVVVANYQKQESSEISLSVGQVVDIIEKNTSGWWFVSTAEEQGWVPATCLEGQ are within error of each other in abundance fitness: 0.001 ± 0.12 for the first, -0.122 ± 0.16 for the second.

Going from EQYVVVANYQKQESSEISLSVGQVVDIIEKNVSGWWFVSTAEEQGWVPATCLEGQ to EQYVVVANYQKQESSEISLSVGQVVDIIEKNYSGWWFVSTAEEQGWVPATCLEGQ, the abundance fitness falls from 0.038 ± 0.082 to -0.345 ± 0.15.

First: EQYVVVANYQKQESSEISLSVGQVVDIIEKNWSGWWFVSTAEEQGWVPATCLEGQ
Second: EQYVVVANYQKQESSEISLSVGQVVDIIEKNRSGWWFVSTAEEQGWVPATCLEGQ
The abundance fitness of the first is lower: -0.353 ± 0.1 for the first, -0.108 ± 0.064 for the second.

Compared with EQYVVVANYQKQESSEISLSVGQVVDIIEKNASGWWFVSTAEEQGWVPATCLEGQ, EQYVVVANYQKQESSEISLSVGQVVDIIEKNKSGWWFVSTAEEQGWVPATCLEGQ is lower in abundance fitness: 0.027 ± 0.075 for the first, -0.326 ± 0.13 for the second.

EQYVVVANYQKQESSEISLSVGQVVDIIEKNISGWWFVSTAEEQGWVPATCLEGQ and EQYVVVANYQKQESSEISLSVGQVVDIIEKMESGWWFVSTAEEQGWVPATCLEGQ are within error of each other in abundance fitness: -0.066 ± 0.19 for the first, -0.009 ± 0.1 for the second.

EQYVVVANYQKQESSEISLSVGQVVDIIEKRESGWWFVSTAEEQGWVPATCLEGQ and EQYVVVANYQKQESSEISLSVGQVVDIIEKKESGWWFVSTAEEQGWVPATCLEGQ are within error of each other in abundance fitness: -0.007 ± 0.072 for the first, -0.028 ± 0.13 for the second.

EQYVVVANYQKQESSEISLSVGQVVDIIEKPESGWWFVSTAEEQGWVPATCLEGQ and EQYVVVANYQKQESSEISLSVGQVVDIIEKWESGWWFVSTAEEQGWVPATCLEGQ are within error of each other in abundance fitness: -0.194 ± 0.1 for the first, -0.367 ± 0.12 for the second.

EQYVVVANYQKQESSEISLSVGQVVDIIEKTESGWWFVSTAEEQGWVPATCLEGQ and EQYVVVANYQKQESSEISLSVGQVVDIIEKLESGWWFVSTAEEQGWVPATCLEGQ are within error of each other in abundance fitness: -0.154 ± 0.1 for the first, -0.092 ± 0.083 for the second.

EQYVVVANYQKQESSEISLSVGQVVDIIEKYESGWWFVSTAEEQGWVPATCLEGQ and EQYVVVANYQKQESSEISLSVGQVVDIIEKQESGWWFVSTAEEQGWVPATCLEGQ are within error of each other in abundance fitness: -0.255 ± 0.11 for the first, -0.188 ± 0.17 for the second.

EQYVVVANYQKQESSEISLSVGQVVDIIEKVESGWWFVSTAEEQGWVPATCLEGQ and EQYVVVANYQKQESSEISLSVGQVVDIIEKNECGWWFVSTAEEQGWVPATCLEGQ are within error of each other in abundance fitness: -0.158 ± 0.08 for the first, -0.266 ± 0.14 for the second.

Going from EQYVVVANYQKQESSEISLSVGQVVDIIEKNEDGWWFVSTAEEQGWVPATCLEGQ to EQYVVVANYQKQESSEISLSVGQVVDIIEKNEPGWWFVSTAEEQGWVPATCLEGQ, the abundance fitness falls from 0.095 ± 0.1 to -0.5 ± 0.13.

EQYVVVANYQKQESSEISLSVGQVVDIIEKNENGWWFVSTAEEQGWVPATCLEGQ and EQYVVVANYQKQESSEISLSVGQVVDIIEKNEHGWWFVSTAEEQGWVPATCLEGQ are within error of each other in abundance fitness: -0.09 ± 0.14 for the first, -0.046 ± 0.13 for the second.

Compared with EQYVVVANYQKQESSEISLSVGQVVDIIEKNETGWWFVSTAEEQGWVPATCLEGQ, EQYVVVANYQKQESSEISLSVGQVVDIIEKNEIGWWFVSTAEEQGWVPATCLEGQ is lower in abundance fitness: -0.086 ± 0.098 for the first, -0.393 ± 0.13 for the second.

First: EQYVVVANYQKQESSEISLSVGQVVDIIEKNEEGWWFVSTAEEQGWVPATCLEGQ
Second: EQYVVVANYQKQESSEISLSVGQVVDIIEKNELGWWFVSTAEEQGWVPATCLEGQ
The abundance fitness of the first is higher: -0.002 ± 0.12 for the first, -0.242 ± 0.094 for the second.

EQYVVVANYQKQESSEISLSVGQVVDIIEKNEQGWWFVSTAEEQGWVPATCLEGQ and EQYVVVANYQKQESSEISLSVGQVVDIIEKNEGGWWFVSTAEEQGWVPATCLEGQ are within error of each other in abundance fitness: 0.074 ± 0.19 for the first, -0.088 ± 0.072 for the second.

EQYVVVANYQKQESSEISLSVGQVVDIIEKNEMGWWFVSTAEEQGWVPATCLEGQ and EQYVVVANYQKQESSEISLSVGQVVDIIEKNEFGWWFVSTAEEQGWVPATCLEGQ are within error of each other in abundance fitness: -0.272 ± 0.14 for the first, -0.229 ± 0.13 for the second.

EQYVVVANYQKQESSEISLSVGQVVDIIEKNEVGWWFVSTAEEQGWVPATCLEGQ and EQYVVVANYQKQESSEISLSVGQVVDIIEKNEYGWWFVSTAEEQGWVPATCLEGQ are within error of each other in abundance fitness: -0.212 ± 0.077 for the first, -0.074 ± 0.11 for the second.

First: EQYVVVANYQKQESSEISLSVGQVVDIIEKNEWGWWFVSTAEEQGWVPATCLEGQ
Second: EQYVVVANYQKQESSEISLSVGQVVDIIEKNEKGWWFVSTAEEQGWVPATCLEGQ
The abundance fitness of the first is lower: -0.387 ± 0.12 for the first, 0.058 ± 0.11 for the second.

— the Human Domainome abundance scans (Beltran et al. 2025)
